The test deals with podoplanin on human brain tumor cells (glioblastoma and medulloblastoma cells and xenografts) (human) (UniProt Q86YL7). The test is described as follows: cell-based or functional assay.

dsNZ-1-PE38KDEL immunotoxin (scFv): the IC50 of cytotoxicity (inhibition of protein synthesis, 3H-leucine incorporation) lay within 0.5 to 6.9 ng/mL.
